Experimental data from patent US6468567B1, “Malt beverage having stabilized flavor and methods of production thereof” (Cerveceria Polar, C.A., priority 1997, dated 2002).

Legend:
[1] = Substrate specificity assays of the purified reductase enzymes; type: biochemical; settings: FIG. 10
Protocol: The activities of the isolated and purified oxoaldehyde reductase enzymes were determined in a mixture containing 9 mM methylglyoxal, 0.1 mM NADPH, 25 mM potassium phosphate buffer (pH 7.0), and the fraction enzyme (8 μg approximately) in a total volume of 0.5 ml. The reaction was monitored at 340 nm. All assays were performed at 25° C. One unit of the enzyme was defined as the amount of enzyme that the catalyzes the oxidation of 1 μmol of NADPH per minute at 25° C.
Various carbonyl compounds were assayed as substrates for the isolated and purified reductase enzymes.

[2] = Effect of the reductases on the LC18 peak in fresh beer (HPLC); type: biochemical; settings: 50 units/ml enzyme, 25° C., 30 minutes, FIG. 11
Protocol: Analysis of the chemical indices LC18 and 5-HMF was performed by liquid chromatography, using a Waters HPLC system which consisted of a 600 pump, Wisp 717 autosampler, Millennium 2010 Chromatography Manager v 2.1. Separation was carried out in an Aminex HPX-87H column 300×7.8 mm, 9 μm held at 55° C. Elution was monitored with a Waters 991 Photodiode Array Detector (200 nm-300 nm) and the quantitation of 5-HMF and LC18 peak was carried out at 283 nm. For analysis, 50 μl of degassed beer was injected in duplicate samples and eluted with 0.05 M H2SO4 over 25 min at a flow rate of 1.0 ml/min. Quantitation of 5-HMF was performed using an external calibration curve of the respective pure compounds (Sigma; Saint Louis, Mo.).
In order to determine the effect of both reductases on the intensity of the LC18 peak, a 1 ml mixture of fresh beer, 25 mM potassium phosphate buffer (pH 7.0), 0.1 mM NADPH and the required volume of enzyme to obtain a final concentration in the solution of 50 units/ml of enzyme was incubated at 25° C. for 30 minutes. After the incubation, the treated beer was analyzed on an Aminex HPX-87H column connected to a Waters HPLC System under the conditions described above.

B1: Reductase 1: NADPH-dependent oxidoreductase purified from brewer's yeast; first 30 residues show 100% homology to Old Yellow Enzyme isozyme OYE2 (protein, UniProt Q03558 2-400, looked up)
NADPH dehydrogenase 2: PFVKDFKPQALGDTNLFKPIKIGNNELLHRAVIPPLTRMRAQHPGNIPNRDWAVEYYAQRAQRPGTLIITEGTFPSPQSGGYDNAPGIWSEEQIKEWTKIFKAIHENKSFAWVQLWVLGWAAFPDTLARDGLRYDSASDNVYMNAEQEEKAKKANNPQHSITKDEIKQYVKEYVQAAKNSIAAGADGVEIHSANGYLLNQFLDPHSNNRTDEYGGSIENRARFTLEVVDAVVDAIGPEKVGLRLSPYGVFNSMSGGAETGIVAQYAYVLGELERRAKAGKRLAFVHLVEPRVTNPFLTEGEGEYNGGSNKFAYSIWKGPIIRAGNFALHPEVVREEVKDPRTLIGYGRFFISNPDLVDRLEKGLPLNKYDRDTFYKMSAEGYIDYPTYEEALKLGWDKN
- activity on pyruvate [1]: neither enzyme showed any appreciable activity
- effect on the assayed aldoses (glucose, galactose and xylose) [1]: little or no effect
- metyrapone as substrate [1]: acceptable substrate
- activity on compounds with a single keto or aldo group such as acetaldehyde and pyridine-3-aldehyde ([1]; comparison of Reductase 1 with Reductase 2): higher activity than Reductase 2
- activity on 2-oxoaldehydes such as methylglyoxal and 3-deoxyglucosone ([1]; substrates methylglyoxal, 3-deoxyglucosone): acted on
- change in the area of the LC18 peak ([2]; 0.1 mM NADPH, relative to untreated control beer): significant decrease
- decrease in the LC18 peak compared with Reductase 2 [2]: larger decrease
